Results from patent US20030060613, “Novel use of calreticulin in modulating hormone responsiveness and new pharmaceuticals for treating cancer, osteoporosis and chronic inflammatory disease” (published 2003).

Key:
[1] = test system: RAR/RXR endogenous retinoic acid receptors (Mus musculus); assay: cell_activity; details: P19 cells, 10^-7 M retinoic acid; 0.49 without retinoic acid; 61.95 with 100 uM KLGFFKR
[2] = biological target: Androgen receptor DNA-binding domain (Rattus norvegicus, UniProt P15207 P15207:541-614); assay: EMSA; details: tags: GST fusion (pGEX-3X); label: 32P
Androgen receptor DNA-binding domain, sequence (P15207 541-614, one chain of several): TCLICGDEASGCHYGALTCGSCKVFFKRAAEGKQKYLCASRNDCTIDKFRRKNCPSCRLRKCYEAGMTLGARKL
Procedure: As described in Rennie et al., 1993, DNA binding domain of recombinant rat androgen receptor was prepared as a GST-fusion protein using the pGEX-3X vector and purified by glutathione-agarose affinity chromatography. p60 (calreticulin) was purified by affinity chromatography on KLGFFKR-sepharose, followed by gel electrophoresis as described in detail in Rojiani et al., 1991. […] Recombinant calreticulin (GST-fusion protein) was prepared as described by Baksh and Michalak, 1991. Gel retardation assays were carried out as described by Rennie et al., 1993. To analyze the effect of p60, or recombinant calreticulin, on receptor-DNA binding activity, the AR was pre-incubated with p60 for 30 min at 4° C. To analyze the effects of synthetic peptides, anti-calreticulin antibody, and non-immune IgG on p60 inhibition of AR-ARE binding, the peptide, antibody or IgG were pre-incubated with p60 for 30 min at 4° C. The androgen receptor preparation was then added to these mixtures and further incubated for 30 min at 4° C.
Affinity purified DNA binding domain of the recombinant rat androgen receptor (AR) was pre-incubated with or without the indicated concentrations of purified p60 at 4° C. for 30 min. After this pre-incubation the reaction mixtures were incubated with ³²P-labeled 26 base pair ARE (Rennie et al., 1993) (androgen response element), and analyzed by gel retardation assay. […]

In the case of “bRARE (RAR-beta upstream 32 bp RARE, luciferase reporter)”, the activity (corrected luc/bgal) [1] is reported as 25.7.

B1: ARE, rat probasin promoter -115 to -140 (dsDNA)
DNA 1: GTAAAGTACTCCAAGAACCTATTTGT
DNA 2: ACAAATAGGTTCTTGGAGTACTTTAC
B1: binds [2].
